Results: patent US20240261333A1, “NOVEL TARGETS FOR ENHANCING ANTI-TUMOR IMMUNITY” (THE BROAD INSTITUTE, INC., priority 2021, published 2024)

Target: T1, B3GNT2 (Homo sapiens, UniProt Q9NY97)
T1 construct: The respective ORFs of candidate genes [CD274 (NM_014143), MCL1 (NM_021960), JUNB (NM_002229), and B3GNT2 (NM_006577)] were synthesized; expressed in transfected cells; host or cells: A375 melanoma cells (lentiviral ORF overexpression)
T1 sequence (Q9NY97 1-397): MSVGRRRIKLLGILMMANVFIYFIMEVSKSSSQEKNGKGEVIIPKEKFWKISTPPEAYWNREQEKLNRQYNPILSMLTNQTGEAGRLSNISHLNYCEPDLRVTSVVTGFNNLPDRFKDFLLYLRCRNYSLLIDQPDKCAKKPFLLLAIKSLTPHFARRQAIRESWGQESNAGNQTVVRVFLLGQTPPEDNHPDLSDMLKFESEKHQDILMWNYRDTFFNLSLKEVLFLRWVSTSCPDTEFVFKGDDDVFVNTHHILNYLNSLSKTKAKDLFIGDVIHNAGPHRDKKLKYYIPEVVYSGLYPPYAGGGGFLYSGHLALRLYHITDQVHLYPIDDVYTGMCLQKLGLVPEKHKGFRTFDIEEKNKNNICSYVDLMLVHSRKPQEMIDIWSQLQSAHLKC
Assay: Co-IP of FLAG-tagged B3GNT2 followed by mass spectrometry
Type: cell-based
Set-up: C-term IgG / C-term flag: unit not given here
Protocol: Cells were plated in 10-cm cell culture dishes and grown to 60-80% confluency. For each condition, two biological replicates were harvested for co-IP. Cells were washed with PBS and 4 mL of lysis buffer (20 mM HEPES, 1% Triton X-100, 150 mM NaCl, 1 mM EDTA, and 10% glycerol) containing protease inhibitor cocktail was added. Cells were scraped and lysate was incubated at 4° C. under rotary agitation for 1 h. Lysate was centrifuged at 14,000×g for 10 min at 4° C. Supernatant was transferred to a new tube and an aliquot was taken as the input. […] For Western blots, 10 μg/mL Chicken Anti-FLAG (Aves labs ET-DY100) and IgY control (R&D Systems AB-101-C) antibodies were biotinylated (Thermo Fisher Scientific 90407) and added to the respective conditions. Lysates with antibodies were incubated at 4° C. under rotary agitation overnight. For each mL of lysate, 50 μL of Pierce Protein A/G Magnetic Beads (Mass spectrometry; Thermo Fisher Scientific 88803) or Pierce Streptavidin Magnetic Beads (Western blot; Thermo Fisher Scientific 88817) was washed twice with lysis buffer. Lysates with antibodies were added to the beads and incubated at 4° C. under rotary agitation for 4 h. Beads were washed with lysis buffer 3 times and resuspended in lysis buffer for storage. […] This solution was subjected to solid phase extraction to concentrate the peptides and remove unwanted reagents followed by injection onto a Shimadzu HPLC with fraction collector. Eight fractions were collected and after concentration were injected on a Waters NanoAcquity HPLC equipped with a self-packed Aeris 3 μm C18 analytical column 0.075 mm by 20 cm, (Phenomenex). Peptides were eluted using standard reverse-phase gradients. The effluent from the column was analyzed using a Thermo Orbitrap Elite mass spectrometer (nanospray configuration) operated in a data dependent manner for 54 minutes. […] Scaffold Q+S (Proteome Software) was used to provide consensus reports for the identified proteins.

[1] = Co-IP with FLAG antibody, C-terminally FLAG-tagged B3GNT2, mass spectrometry count, unit not given
[2] = Co-IP with FLAG antibody, N-terminally FLAG-tagged B3GNT2, mass spectrometry count, unit not given
[3] = Co-IP with IgG control antibody, C-terminally FLAG-tagged B3GNT2, mass spectrometry count, unit not given
[4] = Co-IP with IgG control antibody, N-terminally FLAG-tagged B3GNT2, mass spectrometry count, unit not given
[5] = Co-IP followed by mass spectrometry of B3GNT2, C-term tag, FLAG pull-down
[6] = Co-IP followed by mass spectrometry of B3GNT2, C-term tag, IgG pull-down
[7] = Co-IP followed by mass spectrometry of B3GNT2, N-term tag, FLAG pull-down
[8] = Co-IP followed by mass spectrometry of B3GNT2, N-term tag, IgG pull-down

Substance | C-term flag [1] | N-term FLAG [2] | C-term IgG [3] | N-term IgG [4] | C-term flag [5] | C-term IgG [6] | N-term FLAG [7] | N-term IgG [8]
P4HB | 23 | 3 | 0 | 0 | – | – | – | –
CEP170 | 2 | 0 | 0 | 0 | – | – | – | –
TNC | 10 | 0 | 0 | 0 | – | – | – | –
P01837.1 | – | – | – | – | 146 | 108 | 89 | 87
TCP1 | – | – | – | – | 3 | 0 | 0 | 0
FLG | – | – | – | – | 22 | 15 | 29 | 20
RPS24 | – | – | – | – | 8 | 2 | 0 | 4
ATP5F1B | – | – | – | – | 4 | 0 | 2 | 0
PSMA7 | – | – | – | – | 2 | 0 | 4 | 0
STRAP | 3 | 4 | 0 | 0 | – | – | – | –
CALU | 13 | 10 | 0 | 0 | – | – | – | –
VIM | – | – | – | – | 411 | 337 | 402 | 452
ELOC | 2 | 0 | 0 | 0 | – | – | – | –
EIF4A1 | 6 | 2 | 0 | 0 | – | – | – | –
PPIA | 0 | 6 | 0 | 0 | – | – | – | –
SSRP1 | – | – | – | – | 6 | 0 | 0 | 0
ITGB3 | – | – | – | – | 3 | 0 | 3 | 0
LCN1 | – | – | – | – | 11 | 6 | 11 | 9
RAB1B | 2 | 0 | 0 | 0 | – | – | – | –
KRT4 | – | – | – | – | 37 | 0 | 22 | 21
SRSF3 | – | – | – | – | 7 | 3 | 6 | 4
ECPAS | 0 | 3 | 0 | 0 | – | – | – | –

Substance | C-term flag [1] | N-term FLAG [2] | C-term IgG [3] | N-term IgG [4] | C-term flag [5] | C-term IgG [6] | N-term FLAG [7] | N-term IgG [8]
HDGFL2 | 2 | 0 | 0 | 0 | – | – | – | –
TUBA1B | 0 | 76 | 0 | 0 | – | – | – | –
LRP2 | 2 | 0 | 0 | 0 | – | – | – | –
AIFM1 | 5 | 5 | 0 | 0 | – | – | – | –
TNKS1BP1 | – | – | – | – | 8 | 2 | 2 | 4
NPM1 | 8 | 0 | 0 | 0 | – | – | – | –
SPTAN1 | – | – | – | – | 3 | 0 | 0 | 0
PSMD3 | 0 | 3 | 0 | 0 | – | – | – | –
PSMB5 | – | – | – | – | 0 | 0 | 4 | 0
XRCC5 | 3 | 0 | 0 | 0 | – | – | – | –
TUBB | 117 | 164 | 10 | 10 | – | – | – | –
EPRS | 4 | 3 | 0 | 0 | – | – | – | –
GALNT2 | 2 | 0 | 0 | 0 | – | – | – | –
GBF1 | – | – | – | – | 5 | 0 | 0 | 0
PSMD4 | 0 | 2 | 0 | 0 | – | – | – | –
PSMA1 | 0 | 2 | 0 | 0 | – | – | – | –
FKBP10 | 16 | 0 | 0 | 0 | – | – | – | –
TPI1 | – | – | – | – | 2 | 0 | 3 | 2
HSP90B1 | 56 | 9 | 0 | 0 | – | – | – | –
SUMF2 | 3 | 0 | 0 | 0 | – | – | – | –
PRRC2C | – | – | – | – | 15 | 6 | 6 | 11
PKM | – | – | – | – | 3 | 2 | 3 | 2
